The test concerns the target T1, FasR epitope peptide LHHDGQFCH (human FasR residues 52-60) (human, also: coupled to BSA, linkage not given here).
T1 construct: Coated as BSA-peptide at 100 ng/well; The immunogens were KLH-Cys-X and OVA-Cys-X; also called BSA-specific peptide
T1 peptide: LHHDGQFCH
The experiment in a line: ELISA, BSA-peptide coated on plates. A general note: An ELISA detects its analyte on a solid surface through an enzyme-linked reagent.

Ends that are not written are not given here.

B1: AMF-3a-118 (antibody, V domains shown)
VH: QSVEESGGRLVTPGTPLTLTCKASGFSLSDSRVSWVRQAPGKGLEWIGIVGIGWNIYHANWAKGRFTISKTSSTTVDLKITSPTVEDTATYFCARGLGGGTVIWGPGTLVTVSL
VL: AQVLTQTPASVSAAVGGTVTISCQSSESVYKNNYLSWFQQKPGQPPKLLIYEASKLASGVSTRFKGSGSGTQFTLTISGVQCDDAATYYCLGEFSCYSGDCGTFGGGTAVVVKG
notes: Recombinant rabbit monoclonal IgG (RabMAb) expressed in HEK-293-6E cells
B1: the binding result is listed as “binds”.
